Experimental data published in publication PMC3696401.

Target: IRBIT (UniProt Q80SW1)
Assay: reciprocal co-IP from co-transfected cells
Details: reference: wild-type IP3R1; sites S1589,S1755

Sequence of UniProt Q80SW1 (Q80SW1 whole entry, looked up): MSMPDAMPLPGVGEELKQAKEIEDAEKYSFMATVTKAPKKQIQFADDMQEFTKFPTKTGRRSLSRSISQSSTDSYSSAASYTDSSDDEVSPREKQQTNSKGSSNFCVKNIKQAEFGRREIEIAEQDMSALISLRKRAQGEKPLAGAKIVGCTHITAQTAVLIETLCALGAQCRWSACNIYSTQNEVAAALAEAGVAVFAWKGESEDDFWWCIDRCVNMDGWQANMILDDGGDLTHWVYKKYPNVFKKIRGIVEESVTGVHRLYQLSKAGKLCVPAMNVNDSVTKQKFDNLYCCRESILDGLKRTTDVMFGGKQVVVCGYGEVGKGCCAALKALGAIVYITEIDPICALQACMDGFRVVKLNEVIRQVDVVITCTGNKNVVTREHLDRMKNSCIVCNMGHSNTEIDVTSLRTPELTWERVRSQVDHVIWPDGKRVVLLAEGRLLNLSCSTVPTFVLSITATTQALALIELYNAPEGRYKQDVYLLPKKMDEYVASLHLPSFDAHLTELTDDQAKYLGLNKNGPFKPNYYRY

Substance: IP3R1 (from UniProt P29994-3) S1589A/S1755A (AA)
- binding against the reference: stronger
